Data set [1] deals with TFAM-CTΔ26;POLRMT;TFB2M del221-246 (human;human?;human?) (UniProt Q00059+O00411+Q9H5Q4). In words: DNase I footprinting. Conditions: Footprinting: 10 mM HEPES pH 7.5, 10 mM MgCl2, 10 mM CaCl2 (so in the source), 100 mM NaCl, 1 mM TCEP, 0.1 mg/mL BSA, 32°C; AFM buffer not in material.
Data set [2] deals with T1, TFAM (WT) (human) (UniProt Q00059).
T1 sequence: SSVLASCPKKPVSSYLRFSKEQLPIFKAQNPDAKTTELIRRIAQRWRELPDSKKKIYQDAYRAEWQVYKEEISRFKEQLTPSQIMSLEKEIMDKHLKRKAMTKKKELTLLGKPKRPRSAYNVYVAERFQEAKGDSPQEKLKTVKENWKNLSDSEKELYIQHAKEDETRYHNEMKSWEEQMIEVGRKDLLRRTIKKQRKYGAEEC
As to the kind of experiment: DNase I footprinting. Conditions: Footprinting: 10 mM HEPES pH 7.5, 10 mM MgCl2, 10 mM CaCl2 (so in the source), 100 mM NaCl, 1 mM TCEP, 0.1 mg/mL BSA, 32°C; AFM buffer not in material.

Data set [3] has as its system TFAM (WT) (human). As to the kind of experiment: AFM in liquid, fractional DNA contour coverage. The conditions noted are these: effective free TFAM concentration; Footprinting: 10 mM HEPES pH 7.5, 10 mM MgCl2, 10 mM CaCl2 (so in the source), 100 mM NaCl, 1 mM TCEP, 0.1 mg/mL BSA, 32°C; AFM buffer not in material.
In the next data set the test system is TFAM-CTΔ26 (human). In words: AFM in liquid, persistence length. Conditions: 100 nM CTΔ26 (33 nm) similar to 10 nM TFAM (30 nm); no looping enhancement; Footprinting: 10 mM HEPES pH 7.5, 10 mM MgCl2, 10 mM CaCl2 (so in the source), 100 mM NaCl, 1 mM TCEP, 0.1 mg/mL BSA, 32°C; AFM buffer not in material.

Chain of TFAM-CTΔ26;POLRMT;TFB2M del221-246 (human;human?;human?) (O00411 42-1230, stated change not applied, chain 2 of 2): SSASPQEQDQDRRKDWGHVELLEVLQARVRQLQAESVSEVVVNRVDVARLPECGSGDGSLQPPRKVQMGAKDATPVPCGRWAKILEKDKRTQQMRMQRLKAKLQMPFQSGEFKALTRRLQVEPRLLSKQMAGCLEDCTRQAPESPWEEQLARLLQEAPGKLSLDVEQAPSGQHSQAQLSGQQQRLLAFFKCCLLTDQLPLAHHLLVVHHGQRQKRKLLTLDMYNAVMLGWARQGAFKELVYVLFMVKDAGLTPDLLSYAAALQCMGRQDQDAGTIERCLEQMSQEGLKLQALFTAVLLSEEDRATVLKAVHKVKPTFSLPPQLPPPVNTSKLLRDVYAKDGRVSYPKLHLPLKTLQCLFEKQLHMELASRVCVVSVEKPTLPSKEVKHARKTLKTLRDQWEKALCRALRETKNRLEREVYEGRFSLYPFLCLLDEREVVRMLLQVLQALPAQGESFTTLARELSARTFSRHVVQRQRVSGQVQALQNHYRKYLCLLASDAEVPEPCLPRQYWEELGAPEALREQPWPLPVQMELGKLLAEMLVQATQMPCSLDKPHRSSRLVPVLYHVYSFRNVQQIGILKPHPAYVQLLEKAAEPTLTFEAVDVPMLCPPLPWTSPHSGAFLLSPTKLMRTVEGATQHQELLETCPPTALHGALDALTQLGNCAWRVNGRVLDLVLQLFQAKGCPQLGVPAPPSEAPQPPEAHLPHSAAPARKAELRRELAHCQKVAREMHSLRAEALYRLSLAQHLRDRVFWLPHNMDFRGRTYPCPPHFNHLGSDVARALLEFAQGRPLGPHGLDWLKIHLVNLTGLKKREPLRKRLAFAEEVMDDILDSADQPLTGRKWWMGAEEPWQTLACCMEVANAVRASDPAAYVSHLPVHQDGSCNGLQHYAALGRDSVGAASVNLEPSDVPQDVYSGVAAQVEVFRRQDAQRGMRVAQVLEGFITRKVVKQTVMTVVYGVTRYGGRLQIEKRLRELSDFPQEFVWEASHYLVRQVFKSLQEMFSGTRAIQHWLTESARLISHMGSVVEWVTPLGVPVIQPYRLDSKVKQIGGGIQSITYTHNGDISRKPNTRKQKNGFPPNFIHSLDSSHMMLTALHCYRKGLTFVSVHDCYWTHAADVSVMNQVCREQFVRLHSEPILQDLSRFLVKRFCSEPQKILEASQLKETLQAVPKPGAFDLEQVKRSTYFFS
Chain of TFAM-CTΔ26;POLRMT;TFB2M del221-246 (human;human?;human?) (Q9H5Q4 20-396, stated change not applied, chain 3 of 2): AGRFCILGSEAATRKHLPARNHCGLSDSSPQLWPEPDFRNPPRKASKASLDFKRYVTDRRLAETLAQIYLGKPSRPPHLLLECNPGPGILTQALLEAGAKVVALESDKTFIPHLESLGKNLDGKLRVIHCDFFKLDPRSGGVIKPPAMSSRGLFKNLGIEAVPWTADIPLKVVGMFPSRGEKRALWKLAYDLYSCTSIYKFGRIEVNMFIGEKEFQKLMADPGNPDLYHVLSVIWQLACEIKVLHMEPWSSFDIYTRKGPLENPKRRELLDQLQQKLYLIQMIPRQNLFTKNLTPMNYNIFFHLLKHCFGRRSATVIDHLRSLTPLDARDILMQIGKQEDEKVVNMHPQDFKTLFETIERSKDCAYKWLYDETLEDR

As to “ATTGCTTTGAGGAGGTAAGCTACATAAACTGTGGGGGGTGTCTTTGGGGTTTGGTTGGTTCGGGGTATGGGGTTAGCAGCGGTGTGTGTGTGCTGGGTAGGATGGGCGGGGGTTGTATTGATGAGATTAGTAGTATGGGAGTGGGAGGGGAAAATAATGTGTTAGTTGGGGGGTGACTGTTAAAAGTGCATACCGCCAAAAGATAAAATTTGAAATCTGGTTAGGCTGGTGTT (double strand) [dual promoter template (DPT-WT)]”, the figures for the binding result (in data set [1]; with TFAM (WT) (human) [2]) were “binds more weakly” and “binds”, respectively.

Broadly, the Kd is the constant that tells how readily two partners part at equilibrium. High values mean a looser complex, low ones a tighter complex. Take mtDNA construct (AFM): in the data set on TFAM (WT) (human) [3], the Kd came out at 59 nM. Also, the binding signal (fold weaker than WT TFAM) in the data set with TFAM-CTΔ26 (human) was found to be 10. In the data set with TFAM (WT) (human) [3], puc18 control construct (AFM) yielded a Kd of 200 nM.

Source of the values: paper PMC5552277.
